How the values were obtained:
[1] = cell surface biotinylation, western blot; conditions: glycan lost
[2] = automated whole-cell patch clamp, inactivation width at +80 mV
[3] = whole-cell patch clamp in CHO; conditions: glycan lost; control: wild type
[4] = glycan changed form, control: untreated
[5] = glycan lost, control: wild type
[6] = glycan changed form, control: low glucose

B1: rat Kv3.4 (rKv3.4): tunicamycin (protein)
parent chain: MISSVCVSSYRGRKSGNKPPSKTCLKEEMAKGEASEKIIINVGGTRHETYRSTLRTLPGTRLAWLADPDGGGRPESDGGGAGSSGSSGGGGGCEFFFDRHPGVFAYVLNYYRTGKLHCPADVCGPLFEEELTFWGIDETDVEPCCWMTYRQHRDAEEALDIFESPDGGGGGAGPGDEAGDDERELALQRLGPHEGGSGPGAGSGGCRGWQPRMWALFEDPYSSRAARVVAFASLFFILVSITTFCLETHEAFNIDRNVTEIHRVGNITSVRFRREVETEPILTYIEGVCVMWFTLEFLVRIVCCPDTLDFVKNLLNIIDFVAILPFYLEVGLSGLSSKAARDVLGFLRVVRFVRILRIFKLTRHFVGLRVLGHTLRASTNEFLLLIIFLALGVLIFATMIYYAERIGARPSDPRGNDHTDFKNIPIGFWWAVVTMTTLGYGDMYPKTWSGMLVGALCALAGVLTIAMPVPVIVNNFGMYYSLAMAKQKLPKKRKKHVPRPPQLESPIYCKSEETSPRDSTYSDTSPPAREEGMVERKRADSKQNGDANAVLSDEEGAGLTQPLASAPTPEERRALRRSGTRDRNKKAAACFLLSAGDYACADGSVQKEGSVEPKACVPVSHTCAL
Q: Which results are given for B1?
A: localisation_or_trafficking ([1]; control: untreated): no change; other: channel inactivation delay and its heterogeneity ([2]; glycan lost, control: untreated): decreases

B2: rat Kv3.4 (rKv3.4): cytochalasin B (protein)
parent chain: B1 parent chain
Q: With B2 as the protein, how does the “other: channel inactivation delay and its heterogeneity” value [2, 4] read?
A: Its value is “decreases”.

B3: rat Kv3.4 (rKv3.4): N266Q (protein)
parent chain: B1 parent chain
Q: For B3, which “other: channel current” value [3] is on record?
A: Its value is “decreases”.

Q: And the localisation_or_trafficking ([1]; control: wild type)?
A: Its localisation_or_trafficking is “no change”.

Q: What about the “other: channel inactivation delay and its heterogeneity” value [2, 5] of the same protein?
A: Its value is “decreases”.

B4: rat Kv3.4 (rKv3.4): swainsonine (Sw) (protein)
parent chain: B1 parent chain
Q: With B4 as the protein, how does the “other: channel inactivation delay and its heterogeneity” value [2, 4] read?
A: The value was “decreases”.

B5: rat Kv3.4 (rKv3.4): N257/266Q (protein)
parent chain: B1 parent chain
Q: Which localisation_or_trafficking ([1]; control: wild type) does the source give for B5 here?
A: Its localisation_or_trafficking is “no change”.

B6: rat Kv3.4 (rKv3.4): mannose recovery (protein)
parent chain: B1 parent chain
Q: Which “other: channel inactivation delay and its heterogeneity” value [2, 6] does the source give for B6 here?
A: Its value is “increases”.

B7: rat Kv3.4 (rKv3.4): siGlut1 (protein)
parent chain: B1 parent chain
Q: Which “other: channel inactivation delay and its heterogeneity” value ([2]; glycan changed form, control: siNeg) does the source give for B7 here?
A: Its value is “decreases”.

B8: rat Kv3.4 (rKv3.4): kifunensine (Kf) (protein)
parent chain: B1 parent chain
Q: For B8, which “other: channel inactivation delay and its heterogeneity” value [2, 4] is on record?
A: Its value is “decreases”.

B9: rat Kv3.4 (rKv3.4): N257Q (protein)
parent chain: B1 parent chain
Q: Which results are given for B9?
A: other: channel current [3]: decreases; localisation_or_trafficking ([1]; control: wild type): no change; other: channel inactivation delay and its heterogeneity [2, 5]: decreases

B10: rat Kv3.4 (rKv3.4): glucose recovery (protein)
parent chain: B1 parent chain
Q: Which “other: channel inactivation delay and its heterogeneity” value [2, 6] does the source give for B10 here?
A: The value was “increases”.

B11: rat Kv3.4 (rKv3.4): low-glucose medium (protein)
parent chain: B1 parent chain
Q: With B11 as the protein, how does the “other: channel inactivation delay and its heterogeneity” value [2, 4] read?
A: The value was “decreases”.
